Data reported in patent US20120282177A1 (published 2012).
Where a chain is given by its changes, count along the chain named.

B1: ROR1_A1 (Fab, V domains shown)
VH: EVKLVESGGGLVRPGGSLKLSCAVSGFTFSSYAMSWVRQTPEKRLEWVAAINFNRGTTYYSDTVKGRFTISRDNAKNTLYLQLSSLRSEDTAFYYCSRHRYSDYDYAMDYWGQGTSVTVSS
VL: DIVMSQSPSSMYASLGERVTITCKASQDINSYLNWFQQKPGKSPKTLIYRANRLVDGVPSRFSGSGSGHDYFLTIRSLEYEDMGIYYCLQYDEFPYTFGGGTKLEIKR
B2: ROR1_A13 (Fab, V domains shown)
VH: EVQLVETGGGLVKPGGSLKLSCAASGFTFSSYAMSWIRQTPEKRLEWVAGINSNRGTTYYPDTVKGRFTISRDNAKNTLYLQMNSLRSEDSALYYCVRHRYIDYDYAMDYWGQGTSVTVSS
VL: B1 VL with D1N, S5T, T22I, A25S, N34S, Y49F, H69Q, F72S, R76S, I106V
notes: The entries are called 'variable region' but as printed hold leader, V domain, constant domain and tag
B3: ROR1_A12 (Fab, V domains shown)
VH: B1 VH with K3Q, R13K, V24A, F53S, L83M, S97T
VL: B1 VL with V3K, S5T, N34S, K45M, I48T, Y49H, H69Q, F72S, R76S, Y80N
notes: as for B2
B4: ROR1_A10 (Fab, V domains shown)
VH: EVQLVETGGGLVKPGGSLKLSCAASGFAFSSYAMSWVRQTPEKRLEWVAAINNRGGGTYYPDTVRGRFTISRDNAKNTLYLQMSSLRSADTALYYCVRHDNLNYDYAMDSWGQGTSVTVSS
VL: NIVMTQSPSSMYASLGERVTITCKASQDIYSYLSWFQQKPGKSPKTLIYRANRLVDGVPSRFSGSGSGQDYSLTISSLDYEDVGIYYCLQYDEFPYTFGSGTKLEIER
notes: as for B2
B5: ROR1_A14 (Fab, V domains shown)
VH: QVQLKQSGAELVKPGASVKISCKATGYTFSSYWIEWVKERPGHGLEWIGEILPGIGNTNYNEKFKGKATFTADLSSKTAYMQLSSLTSEDSAVYYCASGGYSTVYWYFDVWGAGTTVTVSS
VL: DVVMSQSPSSLAVSTGEKVTLSCKSSQSLLNSRTRKNYLAWYQQKPGQSPKLLIYWTSTRESGVPNRFTGSGSGTDFTLTISSVQAEDLAVYYCKQSYDLPWTFGGGTKLEIKR
notes: as for B2
B6: ROR1_A6 (Fab, V domains shown)
VH: B1 VH with K3M, R13K, V24A, S31P, F53S, S61P, L83M, S97V, S102N, D103N
VL: B1 VL with N34S, I48T, D56E, H69Q, F72S, R76S
notes: as for B2
B7: ROR1_A3 (Fab, V domains shown)
VH: B1 VH with E1D, K3M, R13K, V24A, F53I, F93L
VL: B1 VL with V3Q, M4L, S5T, T22A, N34S, Y49H, H69Q, F72S, R76S, M83I
notes: as for B2
B8: ROR1_A2 (Fab, V domains shown)
VH: B2 VH with V5L, S31T, I37V, Y80S, N84T, S91T, I102T, D103N
VL: B1 VL with V3K, S5T, N34S, H69Q, F72S, R76S
notes: as for B2
B9: ROR1_A5 (Fab, V domains shown)
VH: EVKLVESGGGLVKPGGSLKLSCAASGFTFSNYDMSWVRQSPEKRLEWVAAINRKGHSTYYPDTVQGRFTISRDNAKNTLYLQMSSLRSEDTALYYCVRLDDNYYFFDYWGQGTTLTVSS
VL: B1 VL with V3K, S5T, N34S, N52K, V55I, H69Q, F72S, R76S
notes: as for B2
B10: ROR1_A7 (Fab, V domains shown)
VH: EVMLVESGGGLVKPGGSLKISCAASGFSFSSYAMSWVRQTPEKSLEWVAAININRGTPYYPDTVKGRFTISRDNAKNTLYLQMSSLRSEDTALYYCVRHRNSNNDYAMDYWGQGTSVTVSS
VL: B4 VL with N1D, A13T, Y30N, V55I, D79E, V83M, Y96F, E107K
notes: as for B2
B11: ROR1_A9 (Fab, V domains shown)
VH: EVQLVETGGDLVKPGGSLKLSCVASGFTFSSNAMSWVRQTPEKRLEWVAAINSKGGGTYYPDTVRGRFTISRDNAKNTLYLQVTSLRSEDTALYYCVSHGDNKYFYAMDYWGQGTSVTVSS
VL: B4 VL with Y30N, D79E, V83M, S100G, E107K
notes: as for B2
B12: ROR1_A4 (Fab, V domains shown)
VH: EVKLVESGGGLVKPGGSLKLSCAASGFTFSNYGMSWVRQTPERRLEWVAAMNNNGASTYYPDTVKGRFTISRDNAKNTLYLQMSSLRSEDTALYFCVRHNNYVDYAMDYWGQGTSVTVSS
VL: B1 VL with V3L, M4L, S5T, A13T, N34S, R53K, H69Q, F72S, R76S, Y80S
notes: as for B2

Target: T1, Tyrosine-protein kinase transmembrane receptor ROR1 (Long Isoform), human, on the cell surface (human, UniProt Q01973 30-937)
T1 construct: Endogenous ROR1 on the human cell lines A549, HT29, H69 and HEK293 and on CLL cells from a patient; also called cell-surface human ROR1; full-length ROR1
Experiment: flow cytometry, legend of FIGS. 5a and 5b (members and cell lines per antibody named in paragraph 474)
Experimental: (§1) The specificity of antibodies against the ROR1 selected in Example 6 was tested by flow cytometry. To test the ability of the antibodies to bind to the cell surface ROR1 protein, the antibodies were incubated with the ROR1-expressing cells, A549, from human lung adenocarinoma. Cells were washed in FACS buffer (DPBS, 2% FBS), centrifuged and resuspended in 100 μl of the diluted primary ROR1 antibody (also diluted in FACS buffer). The antibody-A549 complex was incubated on ice for 60 min and then washed twice with FACS buffer as described above. The cell-antibody pellet was resuspended in 100 μl of the diluted secondary antibody (also diluted in FACS buffer) and incubated on ice for 60 min on ice. The pellet was washed as before and resuspended in 200 μl FACS buffer. The samples were loaded onto the BD FACScanto II flow sytometer and the data analyzed using the BD FACSdiva software. The binding of ROR1_A3, ROR1_A1, ROR1_A8 and ROR1_A14 to ROR1 expressed on A549, H69 (human small cell lung carcinoma) and HT29 (colon carcinoma) cells were also analysed using flow cytometry.

T1 sequence (Q01973 30-937 limits assumed): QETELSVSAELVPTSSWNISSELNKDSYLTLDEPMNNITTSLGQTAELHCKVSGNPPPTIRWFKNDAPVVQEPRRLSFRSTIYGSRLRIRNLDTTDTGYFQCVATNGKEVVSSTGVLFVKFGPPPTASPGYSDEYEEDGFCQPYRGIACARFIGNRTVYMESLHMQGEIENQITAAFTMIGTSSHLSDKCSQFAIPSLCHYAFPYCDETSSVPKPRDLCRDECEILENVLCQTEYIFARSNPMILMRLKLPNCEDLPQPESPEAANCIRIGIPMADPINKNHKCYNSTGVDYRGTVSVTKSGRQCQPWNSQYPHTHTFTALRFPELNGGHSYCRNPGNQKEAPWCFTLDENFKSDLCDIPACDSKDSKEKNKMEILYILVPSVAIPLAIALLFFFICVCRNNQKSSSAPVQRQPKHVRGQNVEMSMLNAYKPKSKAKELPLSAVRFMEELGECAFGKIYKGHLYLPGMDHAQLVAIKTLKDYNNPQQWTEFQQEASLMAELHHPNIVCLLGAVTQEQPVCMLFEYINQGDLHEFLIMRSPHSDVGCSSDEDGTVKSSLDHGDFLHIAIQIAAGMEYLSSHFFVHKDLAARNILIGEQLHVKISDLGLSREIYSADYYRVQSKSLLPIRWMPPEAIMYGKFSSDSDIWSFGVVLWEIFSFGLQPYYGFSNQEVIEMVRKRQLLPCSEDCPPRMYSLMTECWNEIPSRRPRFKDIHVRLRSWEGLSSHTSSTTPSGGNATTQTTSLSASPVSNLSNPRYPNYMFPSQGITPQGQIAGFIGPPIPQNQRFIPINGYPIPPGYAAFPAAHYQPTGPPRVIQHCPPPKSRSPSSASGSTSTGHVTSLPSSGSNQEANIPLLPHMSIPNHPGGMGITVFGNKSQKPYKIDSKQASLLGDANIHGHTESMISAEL

binding result | Binder
binds | B1
binds | B2
binds | B3
binds | B4
binds | B5

Target: T1, Tyrosine-protein kinase transmembrane …
Experiment: flow cytometry on A549 cells (FIG. 5a)
Experimental: as §1

binding result | Binder
binds | B6
binds | B7
binds | B8
binds | B9
binds | B10
binds | B11
binds | B12
